Results: publication PMC3958255 (Sensors (Basel, Switzerland), 2014)

Assays:
[1] = molecular target: T1, Lc-Jun (bJun fused downstream of mLumin (151-233)) (UniProt P05412 257-318); experiment: split reporter (BiFC, NanoBiT); mLumin-based BiFC from the bicistronic vector pBudCE4.1 (BEVL-BiFC) in living COS-7 cells; 100 ng vector (also 300 ng) with 30 ng pmCerulean-C1 as internal control; imaged 16 h after cotransfection; BiFC efficiency = fluorescence intensity ratio of mLumin to mCerulean; details: partners not purified
T1 construct: primers are in the Supporting Information; also called Lc-bJun; source: COS-7, transfected (pBudCE4.1 bicistronic vector), in living cells; not shown: mLumin (151-233) (Lc), N-terminal, kept

[2] = molecular target: T2, Jun-Lc (bJun fused upstream of mLumin (151-233)) (UniProt P05412 257-318); experiment: as above; details: partners not purified
T2 construct: primers are in the Supporting Information; also called bJun-Lc; source: COS-7, transfected (pBudCE4.1 bicistronic vector), in living cells; not shown: mLumin (151-233) (Lc), C-terminal, kept
T2 sequence (P05412 257-318): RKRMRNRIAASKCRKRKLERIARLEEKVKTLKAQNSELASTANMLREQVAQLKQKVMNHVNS

T1 sequence (P05412 257-318): as above

fold contrast in BiFC efficiency over ΔFos/Jun [1]: ~25 fold
fold contrast in BiFC efficiency over ΔFos/Jun [2]: ~25 fold
B1: Ln-Fos (bFos fused downstream of mLumin (1-151)) (domain or fragment, UniProt P01100 118-210, looked up)
chain: GRAQSIGRRGKVEQLSPEEEEKRRIRRERNKMAAAKCRNRRRELTDTLQAETDQLEDEKSALQTEIANLLKEKEKLEFILAAHRPACKIPDDL
notes: primers are in the Supporting Information; also called Ln-bFos; source: COS-7, transfected (pBudCE4.1 bicistronic vector), in living cells; not shown: mLumin (1-151) (Ln), N-terminal, kept
